Assay results published in US20250296971A1, “GASTRIC INHIBITORY PEPTIDE RECEPTOR LIGANDS” (priority 2021, published 2025).
Blank lines part the entries; values can stand above or below the binder they belong to. *1 amine or outer side, *2 acyl side, *3 side chain or, on linkers, in order; H or OH if unused. Bridges are numbered along the chain shown (N, C = ends). Where no end group is shown, it is not given here. [ ]: non-standard residue; d: D form. The star is where a group is joined. Ttds = 1,13-diamino-4,7,10-trioxatridecan-succinamic acid, NCCCOCCOCCOCCCNC(=O)CCC(=O)*; dE(AGLU) = D-glutamic acid bearing 1-amino-1-deoxy-D-glucitol; Pro(trans-4-NH2) = O=C([C@@H]1C[C@@H](N[*:3])CN1[*:1])[*:2]; DOTA = O=C(O)CN1CCN(CC(=O)O)CCN(CC(=O)*)CCN(CC(=O)O)CC1; Trp(5-Cl) = N[C@@H](Cc1c[nH]c2ccc(Cl)cc12)C(=O)O; Pyridine(2,6-diCH2) = c1cc(C[*:1])nc(C[*:2])c1; APAc = 4-amino-1-carboxymethylpiperidine; Ethylenediamine = C(CN[*:2])N[*:1]; Glutaryl = O=C(CCCC(=O)[*:2])[*:1]; AGLU = 1-amino-1-deoxy-D-glucitol; Hyp = O=C(O)[C@@H]1C[C@@H](O)CN1; dGlu(AGLU) = not defined here; hSer = N[C@@H](CCO)C(=O)O; 3CbBn = 3-carboxybenzyl; Api = NC1(C(=O)O)CCNCC1; Aib = CC(C)(N)C(=O)O

Tests used:
dog GIPR (dog) = test: radioligand binding assay, 111In-labeled compound on CHO-VGT cells expressing dog GIPR, 6 h 37 °C; pKD category A = pKD > 9.5
Chain of dog GIPR (dog) (chain, as listed by the source limits assumed, form in doubt): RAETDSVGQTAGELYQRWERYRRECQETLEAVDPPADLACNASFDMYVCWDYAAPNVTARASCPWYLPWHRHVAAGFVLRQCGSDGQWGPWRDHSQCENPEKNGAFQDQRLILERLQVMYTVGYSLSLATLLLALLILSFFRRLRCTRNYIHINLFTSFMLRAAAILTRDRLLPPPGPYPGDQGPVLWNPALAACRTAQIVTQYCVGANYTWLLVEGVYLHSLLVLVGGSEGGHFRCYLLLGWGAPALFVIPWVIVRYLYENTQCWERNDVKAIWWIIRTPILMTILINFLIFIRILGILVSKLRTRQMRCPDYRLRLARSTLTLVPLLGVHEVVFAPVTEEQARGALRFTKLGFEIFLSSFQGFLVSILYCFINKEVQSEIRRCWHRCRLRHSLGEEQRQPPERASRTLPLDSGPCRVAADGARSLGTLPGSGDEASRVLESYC

mouse GIPR (mouse) = mouse GIPR (mouse) (UniProt Q0P543); test: radioligand binding assay, 111In-labeled compound on CHO-VGT cells expressing mouse GIPR, 6 h 37 °C; pKD category C = pKD < 9.0
Chain of mouse GIPR (mouse) (Q0P543 19-460): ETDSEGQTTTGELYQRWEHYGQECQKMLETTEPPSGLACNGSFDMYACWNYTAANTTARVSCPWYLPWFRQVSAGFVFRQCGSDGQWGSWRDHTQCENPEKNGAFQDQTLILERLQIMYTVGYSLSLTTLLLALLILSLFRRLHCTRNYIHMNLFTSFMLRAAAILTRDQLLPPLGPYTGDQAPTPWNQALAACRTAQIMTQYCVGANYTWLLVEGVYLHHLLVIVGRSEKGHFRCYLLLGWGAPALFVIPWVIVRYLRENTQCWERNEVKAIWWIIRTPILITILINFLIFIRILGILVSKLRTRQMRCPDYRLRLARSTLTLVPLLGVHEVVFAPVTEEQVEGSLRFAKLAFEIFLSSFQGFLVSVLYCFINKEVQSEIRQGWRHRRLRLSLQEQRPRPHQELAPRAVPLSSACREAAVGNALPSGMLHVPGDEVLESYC

rat GIPR (rat) = rat GIPR (rat) (UniProt P43219); test: radioligand binding assay, 111In-labeled compound on CHO-VGT cells expressing rat GIPR, 6 h 37 °C; pKD category B = pKD between 9.0 and 9.5
Chain of rat GIPR (rat) (P43219 19-455): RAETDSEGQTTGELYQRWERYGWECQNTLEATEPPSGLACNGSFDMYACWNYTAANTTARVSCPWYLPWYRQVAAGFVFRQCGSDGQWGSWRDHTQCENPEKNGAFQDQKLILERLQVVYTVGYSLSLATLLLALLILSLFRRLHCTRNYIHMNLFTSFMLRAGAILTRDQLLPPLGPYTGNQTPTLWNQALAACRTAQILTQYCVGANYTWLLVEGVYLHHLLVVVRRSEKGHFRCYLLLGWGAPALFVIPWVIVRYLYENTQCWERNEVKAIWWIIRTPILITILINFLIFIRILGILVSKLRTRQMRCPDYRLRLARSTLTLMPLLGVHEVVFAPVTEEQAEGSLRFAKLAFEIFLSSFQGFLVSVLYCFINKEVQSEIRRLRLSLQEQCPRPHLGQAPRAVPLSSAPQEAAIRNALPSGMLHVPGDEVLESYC

[1] = target: human gastric inhibitory polypeptide receptor (human GIPR) (human) (UniProt P48546); test: radioligand binding assay, 111In-labeled compound on CHO cells expressing GIPR, 6 h 37 °C; pKD category A = pKD > 9.5
Chain of human gastric inhibitory polypeptide receptor (human GIPR) (human) (P48546 22-466 limits assumed): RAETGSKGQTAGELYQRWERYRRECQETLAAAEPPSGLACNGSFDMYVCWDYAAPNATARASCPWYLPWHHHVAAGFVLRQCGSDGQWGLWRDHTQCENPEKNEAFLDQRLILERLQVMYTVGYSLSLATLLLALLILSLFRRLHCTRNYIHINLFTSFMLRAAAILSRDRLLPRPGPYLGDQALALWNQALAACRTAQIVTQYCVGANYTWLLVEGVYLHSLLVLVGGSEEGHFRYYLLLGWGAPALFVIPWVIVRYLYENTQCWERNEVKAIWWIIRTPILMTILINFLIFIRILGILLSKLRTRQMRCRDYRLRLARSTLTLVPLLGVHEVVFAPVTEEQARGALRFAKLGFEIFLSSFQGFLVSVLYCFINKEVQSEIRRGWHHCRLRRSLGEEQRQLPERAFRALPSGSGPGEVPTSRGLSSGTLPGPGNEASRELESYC

[2] = target: human Gastric Inhibitory Peptide Receptor (human) (UniProt P48546); test: FACS competition with GIP-057 on CHO-K1-hGIPR cells; pIC50 category B: 7.1-8.0
Chain of human Gastric Inhibitory Peptide Receptor (human) (P48546 22-466 limits assumed): as above

[3] = target: biotinylated extracellular domain of the human GIP receptor (bioGIPR) (human) (UniProt P48546); test: SPR single cycle kinetics, bioGIPR captured on chip; category D: t1/2 <2.0 min
Chain of biotinylated extracellular domain of the human GIP receptor (bioGIPR) (human) (P48546 24-138 limits assumed): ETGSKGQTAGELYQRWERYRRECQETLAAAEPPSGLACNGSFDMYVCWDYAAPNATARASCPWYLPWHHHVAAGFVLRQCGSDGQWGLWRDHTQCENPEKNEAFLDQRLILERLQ

[4] = target: biotinylated extracellular domain of the human GIP receptor (bioGIPR) (human) (UniProt P48546); test: SPR single cycle kinetics, bioGIPR captured on chip; category B: pKD 8.1-9.0
[5] = target: human Gastric Inhibitory Peptide Receptor (GIPR) (human) (UniProt P48546); test: FACS competition vs biotinylated GIP-057 on CHO-K1-hGIPR cells; category B: pIC50 7.1-8.0
[6] = target: biotinylated extracellular domain of the human GIP receptor (bioGIPR) (human) (UniProt P48546); test: SPR single cycle kinetics, bioGIPR captured on chip; category C: t1/2 5-2.1 min

- pKD (dog GIPR (dog)): > 9.5 pkd
- pKD (mouse GIPR (mouse)): < 9 pkd
- pKD (rat GIPR (rat)): 9 to 9.5 pkd
- pKD [1]: > 9.5 pkd
Binder: {AGLU-Glutaryl}-DW[Trp(5-Cl)][Pro(trans-4-NH2)]E[dL]C[Api](DOTA)LIC-{APAc-dE(AGLU)-NH2} (linker 7-11 via Pyridine(2,6-diCH2); also: DOTA complexed with 111In)

- pIC50 [2]: 7.1 to 8 pic50
- t1/2 [3]: < 2 min
- pKD [4]: 8.1 to 9 pkd
Binder: {AGLU-Glutaryl-APAc}-[hSer]W[Trp(5-Cl)][Hyp]E[dL]C[Api](DOTA)LIC-{APAc-dE(AGLU)-NH2} (linker 7-11 via Pyridine(2,6-diCH2)) [AGLU-Glutar-APAc-Hse-Trp-5Clw-Hyp-Glu-leu-[Cys(2Lut)-Apc(DOTA)-Leu-Ile-Cys]-APAc-glu(AGLU)-NH2]

- pIC50 [5]: 7.1 to 8 pic50
- t1/2 [6]: 2.1 to 5 min
- pKD [4]: 8.1 to 9 pkd
B1: DOTA-Ttds-Asp-Trp-5Clw-Pro-Glu-leu-[Cys(3CbBn)-Aib-Leu-Ile-en] (peptide)
peptide: {DOTA-Ttds}-DW[Trp(5-Cl)]PE[dL]C[Aib]LI[Ethylenediamine]
modifications: bridge (positions not given here) via 3CbBn; not fully specified (bridges); printed as DOTA-Ttds-Asp-Trp-5Clw-Pro-Glu-leu-[Cys(3CbBn)-Aib-Leu-Ile-en]

- pIC50 [2]: 7.1 to 8 pic50
- t1/2 [3]: < 2 min
- pKD [4]: 8.1 to 9 pkd
B2: AGLU-Glutar-APAc-Ser-Trp-5Clw-Tap(AGLU-Glutar)-Hse-leu-[Cys(2Lut)-Apc(DOTA)-Leu-Ile-Cys]-APAc-glu(AGLU)-NH2 (peptide)
peptide: SWXXXXCXLIC
modifications: N-term AGLU-Glutar-APAc; 5Clw; Tap(AGLU-Glutar); Hse; leu (D-Leu); thioether cycle [Cys(2Lut)..Cys]; Apc(DOTA); C-term APAc-glu(AGLU)-NH2

- pKD [1]: > 9.5 pkd
B3: 111In-labeled AGLU-Glutar-Asp-Trp-5Clw-Hyp-Glu-leu-[Cys(2Lut)-Apc(DOTA)-Leu-Ile-Cys]-APAc-glu(AGLU)-NH2 (111In-GIP-002) (peptide)
peptide: {AGLU-Glutaryl}-DW[Trp(5-Cl)][Hyp]E[dL]C[Api](DOTA)LIC-{APAc-dGlu(AGLU)-NH2}
modifications: linker 7-11 via Pyridine(2,6-diCH2); reading uncertain; also: DOTA complexed with 111In
